The labels stand for the following.
B1: CPEB3 Ribozyme (parent)
chain: GGGGGCCACAGCAGAAGCGUUCACGUCGCGGCCCCUGUCAGAUUCUGGUGAAUCUGCGAAUUCUGCUGU

The variants in the series derive from B1. Nature of the series: self-cleavage, relative activity (ratio to wild type); higher = more cleavage; co-transcriptional.
On to GGGGGCAACAACAGAAGCGUUCACGUCGCGGCCCCUGUCAGAUUCUGGUGAAUCUGCGAAUUCUGCUGU, for which the self-cleavage was found to be 0.401.

Turning to GGGGGCAACAUCAGAAGCGUUCACGUCGCGGCCCCUGUCAGAUUCUGGUGAAUCUGCGAAUUCUGCUGU, the self-cleavage was 0.315.

On to GGGGGUCACAGCAGAAGCGUUCACGUCGCGGCCCCUGUCAGAUUCUGGUGAAUCAGCGAAUUCUGCUGU, for which the self-cleavage stood at 0.989.

As to GGGGGUCACAGCAGAAGCGUUCACGUCGCGGCCCCUGUCAGAUUCUGGUGAAUCGGCGAAUUCUGCUGU, the self-cleavage was 0.888.

GGGGGUCACAGCAGAAGCGUUCACGUCGCGGCCCCUGUCAGAUUCUGGUGAAUCCGCGAAUUCUGCUGU: the self-cleavage was found to be 0.775.

Turning to GGGGGCAACAGCAGAAGCGUUCACGUCGCGGCCCCUGUCAGAUUCUGGUGAAUCUGCGAAUUCUGCUGU, the self-cleavage was 0.643.

Regarding GGGGGUCACAGCAGAAGCGUUCACGUCGCGGCCCCUGUCAGAUUCUGGUGAAUCUGCGAAUUCUGCUGG, the self-cleavage was found to be 1.04.

With GGGGGUCACAGCAGAAGCGUUCACGUCGCGGCCCCUGUCAGAUUCUGGUGAAUCUGCGAAUUCUGCUGA, the self-cleavage was 1.05.

Turning to GGGGGUCACAGCAGAAGCGUUCACGUCGCGGCCCCUGUCAGAUUCUGGUGAAUCUGCGAAUUCCGCUGU, the self-cleavage is 0.829.

In the case of GGGGGUCACAGCAGAAGCGUUCACGUCGCGGCCCCUGUCAGAUUCUGGUGAAUCUGCGAAUUCAGCUGU, the self-cleavage was determined as 0.853.

With GGGGGUCACAGCAGAAGCGUUCACGUCGCGGCCCCUGUCAGAUUCUGGUGAAUCUGCGAAUUCGGCUGU, the self-cleavage worked out at 0.92.

Take GGGGGCAACAGCGGAAGCGUUCACGUCGCGGCCCCUGUCAGAUUCUGGUGAAUCUGCGAAUUCUGCUGU: the self-cleavage came to 0.598.

Turning to GGGGGCAACAGCUGAAGCGUUCACGUCGCGGCCCCUGUCAGAUUCUGGUGAAUCUGCGAAUUCUGCUGU, the self-cleavage is 0.274.

Take GGGGGUCACAGCAGAAGCGUUCACGUCGCGGCCCCUGUCAGAUUCUGGUGAAUCUGCGAAUUCUGCGGU: the self-cleavage amounted to 0.995.

On to GGGGGCAACAGCAGAAGCGUUCACGUCGCGGCCCCUGUCAGAUUCUGGUGAAUCUGCGACUUCUGCUGU, for which the self-cleavage was 0.152.

Consider GGGGGCAACAGCAGAAGCGUUCACGUCGCGGCCCCUGUCAGAUUCUGGUGAAUCUGCGAUUUCUGCUGU, for which the self-cleavage turned out to be 0.225.

As for GGGGGUCACAGCAGAAGCGUUCACGUCGCGGCCCCUGUCAGAUUCUGGUGAAGCUGCGAAUUCUGCUGU, the self-cleavage was found to be 0.719.

Consider GGGGGCAACAGCAGAAGCGUUCACGUCGCGGCCCCUGUCAGAUUCUGGUGAAUCUGAGAAUUCUGCUGU, for which the self-cleavage is 0.173.

With GGGGGCAACAGCAGAAGCGUUCACGUCGCGGCCCCUGUCAGAUUCUGGUGAAUCUGUGAAUUCUGCUGU, the self-cleavage stood at 0.172.

On to GGGGGCAACCGCAGAAGCGUUCACGUCGCGGCCCCUGUCAGAUUCUGGUGAAUCUGCGAAUUCUGCUGU, for which the self-cleavage came out at 0.76.

Turning to GGGGGCAACGGCAGAAGCGUUCACGUCGCGGCCCCUGUCAGAUUCUGGUGAAUCUGCGAAUUCUGCUGU, the self-cleavage was 0.865.

Take GGGGGCAACAGCAGAAGCGUUCACGUCGCGGCCCCUGUCAGAUUCUGGUGACUCUGCGAAUUCUGCUGU: the self-cleavage came to 0.412.

For GGGGGCAACAGCAGAAGCGUUCACGUCGCGGCCCCUGUCAGAUUCUGGUGAUUCUGCGAAUUCUGCUGU, the self-cleavage turned out to be 0.466.

For the variant GGGGGCAACAGCAGAAACGUUCACGUCGCGGCCCCUGUCAGAUUCUGGUGAAUCUGCGAAUUCUGCUGU, the self-cleavage amounted to 0.0679.

As to GGGGGCAACAGCAGAAGCGUUCACGUCGCGGCCUCUGUCAGAUUCUGGUGAAUCUGCGAAUUCUGCUGU, the self-cleavage was found to be 0.487.

In the case of GGGGGCAACAGCAGAAGCGUUCACGUCGCGGCCGCUGUCAGAUUCUGGUGAAUCUGCGAAUUCUGCUGU, the self-cleavage is 0.136.

As to GGGGGCAACAGCAGAAGCGUUCACGUCGCGGCCACUGUCAGAUUCUGGUGAAUCUGCGAAUUCUGCUGU, the self-cleavage turned out to be 0.106.

In the case of GGGGGCAACAGCAGAAGCGUUCACGUCGCGGUCCCUGUCAGAUUCUGGUGAAUCUGCGAAUUCUGCUGU, the self-cleavage was determined as 0.359.

For the variant GGGGGCAACAGCAGAAGCGUUCACGUCGCGGGCCCUGUCAGAUUCUGGUGAAUCUGCGAAUUCUGCUGU, the self-cleavage is 0.126.

For GGGGGCAACAGCAGAAGCGUUCACGUCGCGGCCCCUGUCAGAUUCUGGUGAAUCUGCGUAUUCUGCUGU, the self-cleavage was 0.157.

On to GGGGGCAACAGCAGAAGCGUUCACGUCGCGGCCCCUGUCAGAUUCUGGUGAAUCUGCGGAUUCUGCUGU, for which the self-cleavage came to 0.469.

GGGGGCAAUAGCAGAAGCGUUCACGUCGCGGCCCCUGUCAGAUUCUGGUGAAUCUGCGAAUUCUGCUGU: the self-cleavage is 0.934.

Consider GGGGGCAAGAGCAGAAGCGUUCACGUCGCGGCCCCUGUCAGAUUCUGGUGAAUCUGCGAAUUCUGCUGU, for which the self-cleavage amounted to 0.639.

GGGGGCAACAGCAGAAGCGUUCACGUCGCGGCCCCUGUCUGAUUCUGGUGAAUCUGCGAAUUCUGCUGU: the self-cleavage amounted to 0.147.

GGGGGCAACAGCAGAAGCGUUCACGUCGCGGCCCCUGUCCGAUUCUGGUGAAUCUGCGAAUUCUGCUGU: the self-cleavage worked out at 0.15.

As to GGGGGCAACAGCAGAAGCGUUCACGUCGCGGCCCCUGUAAGAUUCUGGUGAAUCUGCGAAUUCUGCUGU, the self-cleavage is 0.186.

Turning to GGGGGCAACAGCAGAAGCGUUCACGUCGCGGCCCCUGUUAGAUUCUGGUGAAUCUGCGAAUUCUGCUGU, the self-cleavage was determined as 0.348.

As to GGGGGCAACAGCAGGAGCGUUCACGUCGCGGCCCCUGUCAGAUUCUGGUGAAUCUGCGAAUUCUGCUGU, the self-cleavage is 0.457.

On to GGGGGCAACAGCAGCAGCGUUCACGUCGCGGCCCCUGUCAGAUUCUGGUGAAUCUGCGAAUUCUGCUGU, for which the self-cleavage was determined as 0.162.

With GGGGGUCACAGCAGAAGCGUUCACGUCGCGGCCCCUGUCAGAUUCUGGUGAAUCUGCGAAGUCUGCUGU, the self-cleavage is 0.809.

Consider GGGGGUCACAGCAGAAGCGUUCACGUCGCGGCCCCUGUCAGAUUCUGGUGAAUCUGCGAAAUCUGCUGU, for which the self-cleavage came to 0.736.

In the case of GGGGGUCACAGCAGAAGCGUUCACGUCGCGGCCCCUGUCAGAUUCUGGUGAAUCUGCGAACUCUGCUGU, the self-cleavage is 0.647.

Regarding GGGGGCAACAGCAGAAGCGUUCUCGUCGCGGCCCCUGUCAGAUUCUGGUGAAUCUGCGAAUUCUGCUGU, the self-cleavage came to 0.824.

For the variant GGGGGCAACAGCAGAAGCGUUCGCGUCGCGGCCCCUGUCAGAUUCUGGUGAAUCUGCGAAUUCUGCUGU, the self-cleavage worked out at 0.421.

Consider GGGGGCAACAGCAGAAGCGUUCACGUCGCGGCACCUGUCAGAUUCUGGUGAAUCUGCGAAUUCUGCUGU, for which the self-cleavage was found to be 0.119.

GGGGGCAACAGCAGAAGCGUUCACGUCGCGGCGCCUGUCAGAUUCUGGUGAAUCUGCGAAUUCUGCUGU: the self-cleavage came to 0.226.

For the variant GGGGGCAACAGCAGAAGCGUUCACGUCGCGGCUCCUGUCAGAUUCUGGUGAAUCUGCGAAUUCUGCUGU, the self-cleavage is 0.489.

Turning to GGGGGCAACAGGAGAAGCGUUCACGUCGCGGCCCCUGUCAGAUUCUGGUGAAUCUGCGAAUUCUGCUGU, the self-cleavage is 0.378.

With GGGGGCAACAGAAGAAGCGUUCACGUCGCGGCCCCUGUCAGAUUCUGGUGAAUCUGCGAAUUCUGCUGU, the self-cleavage was determined as 0.147.

Take GGGGGCAACAGCAGAAGCGUUCACGUCGUGGCCCCUGUCAGAUUCUGGUGAAUCUGCGAAUUCUGCUGU: the self-cleavage is 0.261.

In the case of GGGGGCAACAGCAGAAGCGUUCACGUCGGGGCCCCUGUCAGAUUCUGGUGAAUCUGCGAAUUCUGCUGU, the self-cleavage was determined as 0.12.

With GGGGGCAACAGCACAAGCGUUCACGUCGCGGCCCCUGUCAGAUUCUGGUGAAUCUGCGAAUUCUGCUGU, the self-cleavage is 0.137.

Take GGGGGCAACAGCAUAAGCGUUCACGUCGCGGCCCCUGUCAGAUUCUGGUGAAUCUGCGAAUUCUGCUGU: the self-cleavage turned out to be 0.131.

As for GGGGGCAACAGCAAAAGCGUUCACGUCGCGGCCCCUGUCAGAUUCUGGUGAAUCUGCGAAUUCUGCUGU, the self-cleavage was 0.167.

Regarding GGGGGCAACAGCAGAAGAGUUCACGUCGCGGCCCCUGUCAGAUUCUGGUGAAUCUGCGAAUUCUGCUGU, the self-cleavage was 0.0823.

Consider GGGGGCAACAGCAGAAGCGUUCACGUCGCGGCCCCUGUCAGAUUCUGGUGAAUCUGCGAAUUCUGGUGU, for which the self-cleavage was 0.42.

For GGGGGCAACAGCAGAAGCGUUCACGUCGCGGCCCCUGUCAGAUUCUGGUGAAUCUGCGAAUUCUGAUGU, the self-cleavage was found to be 0.354.

As to GGGGGCAACAGCAGAAGCGUUCACGUCGCGGCCCCUGUCAGAUUCUGGUGAAUCUGCGAAUUCUGUUGU, the self-cleavage stood at 0.697.

GGGGGCAACAGCAGAUGCGUUCACGUCGCGGCCCCUGUCAGAUUCUGGUGAAUCUGCGAAUUCUGCUGU: the self-cleavage was found to be 0.222.

Turning to GGGGGCAGCAGCAGAAGCGUUCACGUCGCGGCCCCUGUCAGAUUCUGGUGAAUCUGCGAAUUCUGCUGU, the self-cleavage was 0.8.

With GGGGGCAUCAGCAGAAGCGUUCACGUCGCGGCCCCUGUCAGAUUCUGGUGAAUCUGCGAAUUCUGCUGU, the self-cleavage amounted to 0.769.

On to GGGGGCAACAGCAGAAGCGUUCACGUCGCGGCCCCUGUCAGAUUGUGGUGAAUCUGCGAAUUCUGCUGU, for which the self-cleavage was determined as 0.421.

As for GGGGGUCACAGCAGAAGCGUUCACGUCGCGGCCCCUGUCAGAUUCUGGUGAAUCUGCGAAUACUGCUGU, the self-cleavage amounted to 0.873.

Consider GGGGGUCACAGCAGAAGCGUUCACGUCGCGGCCCCUGUCAGAUUCUGGUGAAUCUGCGAAUGCUGCUGU, for which the self-cleavage stood at 0.783.

Take GGGGGCAACAGCAGAAGCGUUCACGUCGCGGCCCCUGUCAGAUUCUGGUGAAUUUGCGAAUUCUGCUGU: the self-cleavage is 0.614.

On to GGGGGCAACAGCAGAAGCGUUCACGUCGCGGCCCCUGUCAGAUUCUGGUGAAUAUGCGAAUUCUGCUGU, for which the self-cleavage turned out to be 0.318.

GGGGGCAACAGCAGAAGCGUUCACGUCGCGGCCCCUGUCAGAUUCUGGUGAAUCUGCGAAUUUUGCUGU: the self-cleavage is 0.515.

Consider GGGGGCAACAGCAGAAGCGUUCACGUUGCGGCCCCUGUCAGAUUCUGGUGAAUCUGCGAAUUCUGCUGU, for which the self-cleavage worked out at 0.142.

On to GGGGGCAACAGCAGAAGCGUUCACGUAGCGGCCCCUGUCAGAUUCUGGUGAAUCUGCGAAUUCUGCUGU, for which the self-cleavage is 0.0789.

As to GGGGGCAACAGCAGAAGCGUUCACGUGGCGGCCCCUGUCAGAUUCUGGUGAAUCUGCGAAUUCUGCUGU, the self-cleavage worked out at 0.133.

As to GGGGGCAACAGCAGAAGCGUUCACGUCGCGGCCCCUGUCAGAUUCUGGUGCAUCUGCGAAUUCUGCUGU, the self-cleavage was 0.477.

As for GGGGGCAACAGCAGAAGCGUUCACGUCGCGGCCCCUGUCAGAUUCUGGUGGAUCUGCGAAUUCUGCUGU, the self-cleavage worked out at 0.514.

GGGGGCAACAGCAGAAGCGUUGACGUCGCGGCCCCUGUCAGAUUCUGGUGAAUCUGCGAAUUCUGCUGU: the self-cleavage worked out at 0.0999.

Turning to GGGGGCAACAGCAGAAGCGUUCACGUCGCGGCCCUUGUCAGAUUCUGGUGAAUCUGCGAAUUCUGCUGU, the self-cleavage was 0.222.

GGGGGCAACAGCAGAAGCGUUCACGUCGCGGCCCGUGUCAGAUUCUGGUGAAUCUGCGAAUUCUGCUGU: the self-cleavage is 0.156.

For the variant GGGGGCAACAGCAGAAGCGUUCAGGUCGCGGCCCCUGUCAGAUUCUGGUGAAUCUGCGAAUUCUGCUGU, the self-cleavage is 0.0158.

Turning to GGGGGCAACAGCAGAAGCGUUCAUGUCGCGGCCCCUGUCAGAUUCUGGUGAAUCUGCGAAUUCUGCUGU, the self-cleavage was 0.192.

Take GGGGGCAACAGCAGAAGCGUUCAAGUCGCGGCCCCUGUCAGAUUCUGGUGAAUCUGCGAAUUCUGCUGU: the self-cleavage was 0.161.

Values taken from the RNAGym collection of RNA variant scans (doi:10.7554/elife.80360).
